Earlier results as cited in publication PMC12860355.

Target: TATA-binding protein (Homo sapiens) (UniProt P20226)
UniProt P20226, sequence (P20226 whole entry): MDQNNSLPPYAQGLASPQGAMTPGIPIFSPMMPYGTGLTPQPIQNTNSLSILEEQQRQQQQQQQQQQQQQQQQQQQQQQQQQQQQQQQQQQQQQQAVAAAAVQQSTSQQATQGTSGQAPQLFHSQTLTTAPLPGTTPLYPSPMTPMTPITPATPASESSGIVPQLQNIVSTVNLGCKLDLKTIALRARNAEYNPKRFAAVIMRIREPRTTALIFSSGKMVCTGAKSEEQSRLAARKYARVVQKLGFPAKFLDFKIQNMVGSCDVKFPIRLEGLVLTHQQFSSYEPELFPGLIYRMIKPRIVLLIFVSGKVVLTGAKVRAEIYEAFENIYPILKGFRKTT

Kd: 1 nM
Substance: Importin 9 (from UniProt Q96P70)
